Source: IntAct's records for PubMed 29039417

B1: Protein PTHB1 (Homo sapiens), Q3SYG4 (parent)
chain: MSLFKARDWWSTILGDKEEFDQGCLCLANVDNSGNGQDKIIVGSFMGYLRIFSPHPAKTGDGAQAEDLLLEVDLRDPVLQVEVGKFVSGTEMLHLAVLHSRKLCVYSVSGTLGNVEHGNQCQMKLMYEHNLQRTACNMTYGSFGGVKGRDLICIQSMDGMLMVFEQESYAFGRFLPGFLLPGPLAYSSRTDSFLTVSSCQQVESYKYQVLAFATDADKRQETEQQKLGSGKRLVVDWTLNIGEQALDICIVSFNQSASSVFVLGERNFFCLKDNGQIRFMKKLDWSPSCFLPYCSVSEGTINTLIGNHNNMLHIYQDVTLKWATQLPHIPVAVRVGCLHDLKGVIVTLSDDGHLQCSYLGTDPSLFQAPNVQSRELNYDELDVEMKELQKIIKDVNKSQGVWPMTEREDDLNVSVVVSPNFDSVSQATDVEVGTDLVPSVTVKVTLQNRVILQKAKLSVYVQPPLELTCDQFTFEFMTPDLTRTVSFSVYLKRSYTPSELEGNAVVSYSRPTDRNPDGIPRVIQCKFRLPLKLICLPGQPSKTASHKITIDTNKSPVSLLSLFPGFASQSDDDQVNVMGFHFLGGARITVLASKTSQRYRIQSEQFEDLWLITNELILRLQEYFEKQGVKDFACSFSGSIPLQEYFELIDHHFELRINGEKLEELLSERAVQFRAIQRRLLARFKDKTPAPLQHLDTLLDGTYKQVIALADAVEENQGNLFQSFTRLKSATHLVILLIALWQKLSADQVAILEAAFLPLQEDTQELGWEETVDAAISHLLKTCLSKSSKEQALNLNSQLNIPKDTSQLKKHITLLCDRLSKGGRLCLSTDAAAPQTMVMPGGCTTIPESDLEERSVEQDSTELFTNHRHLTAETPRPEVSPLQGVSE
partner: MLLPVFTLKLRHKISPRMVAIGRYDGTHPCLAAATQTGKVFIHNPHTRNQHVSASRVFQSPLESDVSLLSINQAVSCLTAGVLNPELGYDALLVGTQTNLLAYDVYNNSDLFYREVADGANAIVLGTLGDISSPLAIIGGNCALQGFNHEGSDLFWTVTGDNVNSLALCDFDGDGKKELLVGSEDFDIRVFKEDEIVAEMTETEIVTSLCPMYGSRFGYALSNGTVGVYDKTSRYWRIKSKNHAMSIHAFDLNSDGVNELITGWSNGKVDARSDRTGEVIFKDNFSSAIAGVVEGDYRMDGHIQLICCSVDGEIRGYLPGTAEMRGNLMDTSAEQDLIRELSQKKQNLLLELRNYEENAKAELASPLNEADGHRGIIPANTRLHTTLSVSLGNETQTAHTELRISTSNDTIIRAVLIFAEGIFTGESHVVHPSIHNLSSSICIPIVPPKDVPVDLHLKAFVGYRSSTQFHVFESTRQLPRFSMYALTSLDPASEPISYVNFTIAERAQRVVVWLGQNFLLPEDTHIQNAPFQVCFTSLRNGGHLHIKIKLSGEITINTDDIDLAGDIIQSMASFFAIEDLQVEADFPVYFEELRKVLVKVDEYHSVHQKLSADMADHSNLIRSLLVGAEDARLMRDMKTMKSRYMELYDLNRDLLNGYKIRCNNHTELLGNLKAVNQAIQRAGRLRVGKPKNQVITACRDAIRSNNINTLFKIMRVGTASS

Variants of: B1
Conditions: with bbs2_human BBS2, Q9BXC9

| effect of a mutation on the interaction | Variant |
| --- | --- |
| with no effect | I523E |
| with no effect | G638E |
| with no effect | G638A |
| with no effect | L465A |
| with no effect | L465E |
| with no effect | Q462A |
| disrupting interaction strength | Q462Y |
| with no effect | E765K |
| with no effect | R678A |
| with no effect | R678E |
| with no effect | I735E |
| with no effect | A831K |
| with no effect | L500A |
| disrupting interaction strength | Q705M |
| with no effect | C535K |
| with no effect | H732K |
| with no effect | H732A |
| with no effect | R818E |
| with no effect | R818A |
| with no effect | H651E |
| disrupting interaction strength | M578K |
| with no effect | S596A |
| with no effect | T688K |
| disrupting interaction strength | T688E |
| with no effect | V440K |
| with no effect | K542A |

| effect of a mutation on the interaction | Variant |
| --- | --- |
| with no effect | H867A |
| with no effect | T496K |
| with no effect | S558K |
| with no effect | D747E |
| with no effect | D480A |
| with no effect | Q539E |
| with no effect | Q717K |
| with no effect | S423K |
| with no effect | K526A |
| with no effect | K443E |
| with no effect | L793K |
| with no effect | G518K |
| with no effect | H811A |
| with no effect | E406K |
| with no effect | E406A |
| with no effect | Y508A |
| with no effect | Y645K |
| with no effect | S414A |
| with no effect | L825A |
| with no effect | R483E |
| disrupting interaction strength | P479L |
| with no effect | Q574A |
| with no effect | K685A |
| with no effect | F632A |
| with no effect | C525K |
| with no effect | C525A |

| effect of a mutation on the interaction | Variant |
| --- | --- |
| with no effect | V459E |
| with no effect | G841E |
| with no effect | L784E |
| with no effect | R619E |
| with no effect | T589K |
| with no effect | E604K |
| with no effect | F606A |
| with no effect | F636A |
| with no effect | Q748A |
| with no effect | T441K |
| with no effect | V415A |
| with no effect | S806A |
| with no effect | P881E |
| with no effect | P881A |
| with no effect | G823A |
| with no effect | L780K |
| with no effect | L727A |
| with no effect | M477E |
| with no effect | S509K |
| with no effect | V522A |
| with no effect | V629A |
| with no effect | S568A |
| with no effect | S568K |
| with no effect | R521A |
| with no effect | R521E |
| disrupting interaction strength | R521T |

| effect of a mutation on the interaction | Variant |
| --- | --- |
| with no effect | D700E |
| with no effect | D700K |
| with no effect | D572E |
| disrupting interaction strength | T595I |
| with no effect | S603A |
| with no effect | S545E |
| with no effect | S561E |
| with no effect | L733E |
| with no effect | L733A |
| with no effect | V485K |
| disrupting interaction strength | W741R |
| with no effect | R493K |
| with no effect | N866K |
| with no effect | I550A |
| with no effect | R868K |
| with no effect | S855E |
| with no effect | E848A |
| with no effect | R528A |
| with no effect | S667E |
| with no effect | L620A |
| with no effect | V577E |
| with no effect | V713K |
| with no effect | H869A |
| with no effect | T763K |
| with no effect | L814E |
| with no effect | E663A |

| effect of a mutation on the interaction | Variant |
| --- | --- |
| with no effect | P530K |
| with no effect | L609K |
| with no effect | S488K |
| with no effect | R679A |
| with no effect | F864E |
| with no effect | D817A |
| with no effect | V557E |
| with no effect | Q760E |
| with no effect | D435A |
| with no effect | S880E |
| with no effect | R876A |
| with no effect | L662K |
| disrupting interaction strength | Q597R |
| with no effect | T771E |
| with no effect | A872E |
| with no effect | A872K |
| with no effect | F472K |
| with no effect | E853K |
| with no effect | E853A |
| disrupting interaction strength | T702C |
| with no effect | T702K |
| with no effect | A592K |
| with no effect | S541E |
| with no effect | N794A |
| with no effect | I534E |
| with no effect | Y490E |

| effect of a mutation on the interaction | Variant |
| --- | --- |
| disrupting interaction strength | G565R |
| with no effect | F566E |
| with no effect | I548A |
| with no effect | Y460E |
| with no effect | S486K |
| disrupting interaction strength | S486N |
| with no effect | V856K |
| with no effect | V856A |
| with no effect | D573A |
| with no effect | P556K |
| with no effect | V416K |
| disrupting interaction strength | L695M |
| with no effect | T473A |
| with no effect | D470E |
| with no effect | P834E |
| disrupting interaction strength | P691S |
| with no effect | L611K |
| with no effect | D850E |
| with no effect | Q835K |
| with no effect | L757A |
| with no effect | V461E |
| with no effect | Q791E |
| with no effect | D650E |
| with no effect | D650K |
| with no effect | S723A |
| with no effect | S723K |

| effect of a mutation on the interaction | Variant |
| --- | --- |
| with no effect | H652A |
| with no effect | R587K |
| with no effect | G822E |
| with no effect | R854K |
| with no effect | S797E |
| disrupting interaction strength | L559R |
| with no effect | L616A |
| with no effect | L467K |
| with no effect | R598A |
| with no effect | L618A |
| with no effect | Y623A |
| with no effect | R824E |
| with no effect | Q643A |
| with no effect | N412K |
| with no effect | I738A |
| with no effect | T731K |
| with no effect | T434E |
| with no effect | P877E |
| disrupting interaction strength | D804F |
| with no effect | T861E |
| with no effect | R669A |
| with no effect | R669E |
| with no effect | Q677A |
